This is an account of results in publication PMC9621051 (mAbs, 2022).

Broadly, the stoichiometry N is the number of molecules, sites or subunits per partner or assembly.

The series deals with the molecule itself. The series is described as follows: native MS.

B1: phospholipase D3 (PLD3) (enzyme)
chain: MKPKLMYQELKVPVEEPAGELPVNEIEAWKAAEKKARWVLLVLILAVVGFGALMTQLFLWEYGDLHLFGPNQRPAPCYDPCEAVLVESIPEGLEFPNATTSNPSTSQAWLGLLAGAHSSLDIASFYWTLTNNDTHTQEPSAQQGEEILQQLQALAPRGVKVRIAVSKPNGPLADLQSLLQSGAQVRMVDMQKLTHGVLHTKFWVVDQTHFYLGSANMDWRSLTQVKELGVVMYNCSCLARDLTKIFEAYWFLGQAGSSIPSTWPRPFDTRYNQETPMEICLNGTPALAYLASAPPPLCPSGRTPDLKALLSVVDSARSFIYIAVMNYLPTMEFSHPRRFWPAIDDGLRRAAYERGVKVRLLVSCWGHSEPSMRSFLLSLAALRDNHTHSDIQVKLFVVPADEAQARIPYARVNHNKYMVTERAVYIGTSNWSGSYFTETAGTSLLVTQNGHDGLRSQLEDVFLRDWNSLYSHNLDTAADSVGNACRLL
As to B1, the “stoichiometry N” value was determined as 2.
